Laboratory results taken from the supplement of paper PMC12764529.
± gives the half width of the 95% confidence interval.

What was measured:
[1] = folding stability dG unfold from trypsin proteolysis; higher = more stable
Method in brief: (§1)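 Bayesian fitting of sequencing counts gave K50 for each design. Unfolding free energy followed by setting this against a sequence-predicted unfolded-state K50 and a shared folded-state K50, either per protease or with trypsin and chymotrypsin combined. The designs, under 80 residues and lacking cysteine, were digested in a PA-tagged cDNA display format at 11 threefold-diluted protease concentrations and without protease, and only those with AlphaFold2 dimer inter-PAE above 15 were kept.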

[2] = folding stability dG unfold from chymotrypsin proteolysis; higher = more stable
Method in brief: as §1

[3] = folding stability dG unfold (combined trypsin and chymotrypsin); higher = more stable
Method in brief: as §1

SMKPITLEEALKLAEKLIEEGAKEVVIIRREDGTLLAIMEAEEASPEKVKEFLEANPNVRVLRITGSKEESA [r9_568_TrMRF]
folding stability dG unfold [1]: 3.17 ± 0.15 kcal/mol
folding stability dG unfold [2]: 3.11 ± 0.045 kcal/mol
folding stability dG unfold [3]: 3.07 ± 0.12 kcal/mol

SMKPPVVEIKAKVVEVKEVNGKLYVKVEITEIKDAPPEVKELIKEGKTILVEVKPGEEVKEGDEVTIKIVSA [r9_557_TrROS_Hall]
folding stability dG unfold [1]: 2.46 ± 0.21 kcal/mol
folding stability dG unfold [2]: 2.03 ± 0.22 kcal/mol
folding stability dG unfold [3]: 2.32 ± 0.3 kcal/mol

SMKPVKITEVTEDTITVTVTVYDKETNRLVKVTAEITFDKETKKLTIKVKVEVLPPLSEEQRKALEEALKSA [r9_1038_TrROS_Hall]
folding stability dG unfold [1]: 1.98 ± 0.076 kcal/mol
folding stability dG unfold [2]: 2.94 ± 0.07 kcal/mol
folding stability dG unfold [3]: 2.74 ± 0.17 kcal/mol

SMKSEEEKKAKELKKQKPVIVFDKETGKITVYDAKTGKKIEIEVKVKKTKDGKVEPLTEEELKKLLKKLASA [r9_1056_TrROS_Hall]
folding stability dG unfold [1]: 1.63 ± 0.077 kcal/mol
folding stability dG unfold [2]: 1.19 ± 0.28 kcal/mol
folding stability dG unfold [3]: 1.12 ± 0.38 kcal/mol

SMKSKIEVKTVTFTFSPDDPLAKTPLEEIISEKAKKEGKKIEIPSYSYTSTDPAKGTKTYTFTVKIIKEESA [r9_107_JUSTAS]
folding stability dG unfold [1]: 0.122 ± 0.16 kcal/mol
folding stability dG unfold [2]: 0.797 ± 0.21 kcal/mol
folding stability dG unfold [3]: 0.534 ± 0.14 kcal/mol

SMKTVVIKIRKKDGKVTLEEIREAIKALLPPGAKVKLTEEELEKLVEELEKKTGKEITADDLVIVVEVEPSA [r9_197_TrROS_Hall]
folding stability dG unfold [1]: 2.29 ± 0.085 kcal/mol
folding stability dG unfold [2]: 2.59 ± 0.081 kcal/mol
folding stability dG unfold [3]: 2.51 ± 0.16 kcal/mol

SMKVEIEEEVEGDRITLTIKFDDEEEAEKAIKELAKELGIPMKVLSRESEKLPGGEYKLTITGEVPPDLKSA [r9_102_JUSTAS]
folding stability dG unfold [1]: 0.192 ± 0.083 kcal/mol
folding stability dG unfold [2]: 1.1 ± 0.24 kcal/mol
folding stability dG unfold [3]: 0.529 ± 0.24 kcal/mol

SMKVTLDGKGSVTTMPAEQLEVLIKELKEKGYKVKILSEEPDPNSDTVNYTIEITPPKPEKEEFENEELKSA [r9_448_JUSTAS]
folding stability dG unfold [1]: 0.948 ± 0.039 kcal/mol
folding stability dG unfold [2]: 1.94 ± 0.12 kcal/mol
folding stability dG unfold [3]: 1.59 ± 0.12 kcal/mol

SMKVTVTVERLPDGRGRITITINDSTLEIEVPPGLDPEELRAFAEETAKEIEEKLKEEGNPVTIEEITLSSA [r9_751_JUSTAS]
folding stability dG unfold [1]: 2.58 ± 0.14 kcal/mol
folding stability dG unfold [2]: 1.61 ± 0.14 kcal/mol
folding stability dG unfold [3]: 2.15 ± 0.24 kcal/mol

SMKVYVKVLPPEYAVAYIYTDKKYEIPIPTTDLEEARAQIEEIVNEIEKRTGVKAEVEITEVAPDTKIPLSA [r9_786_JUSTAS]
folding stability dG unfold [1]: 0.182 ± 0.15 kcal/mol
folding stability dG unfold [2]: 0.928 ± 0.13 kcal/mol
folding stability dG unfold [3]: 0.74 ± 0.22 kcal/mol

SMKYVKILLTLKGKPHVITIPSSLSLEEIIDKAIEFAKELGYKDIPKEELKILKVEENPDEEGSSSIIIGSA [r9_1053_TrMRF]
folding stability dG unfold [1]: 3.48 ± 0.2 kcal/mol
folding stability dG unfold [2]: 3.74 ± 0.042 kcal/mol
folding stability dG unfold [3]: 3.61 ± 0.14 kcal/mol

SMLKEIPITVPEEGEVVTVNIEELAKEQGLDPNNVTVTVTSSGPGKVYKITISSNGITITEVGNVPTALLSA [r9_819_JUSTAS]
folding stability dG unfold [1]: 0.546 ± 0.04 kcal/mol
folding stability dG unfold [2]: 0.684 ± 0.098 kcal/mol
folding stability dG unfold [3]: 0.717 ± 0.081 kcal/mol

SMLLIKITVKNPDGEEKEIVLSAEELRKLFEEETGEEYSLEEIAERLKKLFPNAKVEIVPLEELSEEELKSA [r9_1085_TrROS_Hall]
folding stability dG unfold [1]: 2.77 ± 0.073 kcal/mol
folding stability dG unfold [2]: 3.58 ± 0.068 kcal/mol
folding stability dG unfold [3]: 3.31 ± 0.12 kcal/mol

SMLVLRLPDNRLAVLEYDPETKRLRVLVVDPESGRLTVAEIHPETGEITVDEYTLLPNGEPLPHRFELPLSA [r9_1073_TrMRF]
folding stability dG unfold [1]: 2.84 ± 0.099 kcal/mol
folding stability dG unfold [2]: 2.54 ± 0.048 kcal/mol
folding stability dG unfold [3]: 2.73 ± 0.058 kcal/mol

SMLYRVTTVVVRGDRPLVIPVLADSLEAFLEEAREAIPPELREELPPDAVVRVFVEPVPAVVPEPGEPLPSA [r9_111_TrMRF]
folding stability dG unfold [1]: 1.42 ± 0.057 kcal/mol
folding stability dG unfold [2]: 2.03 ± 0.069 kcal/mol
folding stability dG unfold [3]: 1.77 ± 0.25 kcal/mol

SMMIKVKITITNEKGEEVEIEIVASPEEIEEALRKLLPPGAKVEIEKIEFYPLEELKPGDVIKITVRVKPSA [r9_803_TrROS_Hall]
folding stability dG unfold [1]: 2.85 ± 0.11 kcal/mol
folding stability dG unfold [2]: 4.47 ± 0.54 kcal/mol
folding stability dG unfold [3]: 3.72 ± 0.34 kcal/mol

SMNIHIPILTRPDVDEETIEEEVEALAAELAEKLGLPEGVEVEIEPEPLPEDGVVYHVTLRVGDVEFKGESA [r9_776_TrMRF]
folding stability dG unfold [1]: 0.168 ± 0.14 kcal/mol
folding stability dG unfold [2]: 0.0835 ± 0.4 kcal/mol
folding stability dG unfold [3]: 0.0299 ± 0.33 kcal/mol

SMNIVEIEVEEKIIGDTTTITIPIKVNGPAVSEEEIKKIVEDIFKKKGLKINIKIEKDPNSGVITITIIESA [r9_717_JUSTAS]
folding stability dG unfold [1]: 2.01 ± 0.15 kcal/mol
folding stability dG unfold [2]: 2.55 ± 0.12 kcal/mol
folding stability dG unfold [3]: 2.33 ± 0.19 kcal/mol

SMNPIGNPITLPDGTTITIIPDLGLILIYDPETGTFIARLILVDENGIPHIFPFIGKIDPETGEIIEIDPSA [r9_122_TrMRF]
folding stability dG unfold [1]: 3.31 ± 0.11 kcal/mol
folding stability dG unfold [2]: 4.13 ± 0.062 kcal/mol
folding stability dG unfold [3]: 3.87 ± 0.069 kcal/mol

SMPEILDVREDPDAPGALTFRVKLPDGEATVVIPYDPETGTFTAVRYYPDGEEVREFDSFEDALEAILEDSA [r9_366_TrMRF]
folding stability dG unfold [1]: 1.45 ± 0.019 kcal/mol
folding stability dG unfold [2]: 1.46 ± 0.051 kcal/mol
folding stability dG unfold [3]: 1.49 ± 0.053 kcal/mol

SMPGSITVEIEVEEEEDPERGGRRIKKLLIKKVTYKDEKGNSSDEVANEIKNALKEKLEKEGKPAEIELTSA [r9_261_JUSTAS]
folding stability dG unfold [1]: 1.35 ± 0.081 kcal/mol
folding stability dG unfold [2]: 1.11 ± 0.23 kcal/mol
folding stability dG unfold [3]: 1.27 ± 0.37 kcal/mol
